Experimental data taken from article PMC6143588, “A variant NuRD complex containing PWWP2A/B excludes MBD2/3 to regulate transcription at active genes” (Nature Communications, 2018).
Where no end group is shown, it is not given here. The star is where a group is joined. 5FAM = O=C1OC2(c3ccc(O)cc3Oc3cc(O)ccc32)c2ccc(C(=O)*)cc21

T1: His10-Flag3-TEV-MTA1 162-546 (UniProt Q13330 162-546)
T1 construct: MTA1 residues 162-546 (ELM2 and SANT domains and an additional domain that recruits RBBP4); The complex was captured by the Flag tag and then cut from the resin with TEV before gel filtration; also called FLAG-MTA1 162-546; MTA1-long; source: HEK293F, co-transfected, purified on FLAG resin, TEV cleavage, gel filtration; not shown: His10, N-terminal, kept; Flag3, N-terminal, kept
T1 sequence (looked up): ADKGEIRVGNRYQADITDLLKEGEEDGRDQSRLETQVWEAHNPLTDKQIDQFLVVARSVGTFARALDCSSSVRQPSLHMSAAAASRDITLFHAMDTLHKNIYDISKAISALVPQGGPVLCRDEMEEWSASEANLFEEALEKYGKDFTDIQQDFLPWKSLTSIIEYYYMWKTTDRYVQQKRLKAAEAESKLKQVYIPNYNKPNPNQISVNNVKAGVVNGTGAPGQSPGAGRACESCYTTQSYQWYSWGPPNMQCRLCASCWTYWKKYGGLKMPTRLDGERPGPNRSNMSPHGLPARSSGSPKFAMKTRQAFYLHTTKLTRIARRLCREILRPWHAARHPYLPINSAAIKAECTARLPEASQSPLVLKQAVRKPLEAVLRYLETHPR

B1: PWWP2A1–373, untagged, co-expressed in HEK293F cells (domain or fragment, UniProt Q96N64 1-373, looked up)
chain: MAAVAAEAAATAASPGEGGAGEAEPEMEPIPGSEAGTDPLPVTATEASVPDGETDGQQSAPQADEPPLPPPPPPPGELARSPEAVGPELEAEEKLSVRVAESAAAAPQGGPELPPSPASPPEQPPAPEEREEPPLPQPVAPALVPPAGGDSTVSQLIPGSEVRVTLDHIIEDALVVSFRFGEKLFSGVLMDLSKRFGPHGIPVTVFPKREYKDKPEAMPLQSNTFQEGTEVKCEANGAVPDDPSPVPHPELSLAESLWTSKPPPLFHEGAPYPPPLFIRDTYNQSIPQPPPRKIKRPKRKMYREEPTSIMNAIKLRPRQVLCDKCKNSVVAEKKEIRKGSSATDSSKYEDKKRRNESVTTVNKKLKTDHKVDG
notes: source: HEK293F, co-transfected, co-purified with FLAG-MTA1 (FLAG resin, gel filtration)
B2: fluorescein-labelled PWWP2A peptide (residues 311–325) (peptide, UniProt Q96N64 311-325, looked up)
peptide: 5FAM-NAIKLRPRQVLCDKC
modifications: cysteine pairing not given here
notes: PWWP2A residues 311-325, contains the motif R/QPRQV/L; source: synthetic peptide (Cambridge Research Biochemicals)

Assays:
[1] = biological target: T1, His10-Flag3-TEV-MTA1 162-546; assay: co-IP + SEC; co-expression in HEK293F of His10-Flag3-TEV-MTA1 162-546 with untagged HDAC1, RBBP4 and PWWP2A 1-373; FLAG resin, TEV cleavage, Superdex S200 in 25 mM Tris-Cl pH 7.5, 50 mM potassium acetate, 0.5 mM TCEP; SDS-PAGE; conditions: partners not purified
[2] = biological target: T2, HDAC1:MTA1 162–354 complex (UniProt Q13547 1-482; Q13330 162-354); assay: fluorescence polarisation; fluorescence anisotropy of 5-FAM PWWP2A peptide with unlabelled HDAC1:MTA1 162-354 complex; room temperature; 50 mM Tris pH 7.5, 150 mM KAc, 0.15 mg/mL BSA, 0.03% Tween-20; excitation 480 nm, emission 535 nm; conditions: both partners purified
T2 construct: HDAC1, untagged; MTA1 residues 162-354; Unlabelled complex formed beforehand, used in the anisotropy titration; also called MTA1:HDAC1 complex; HM; source: HEK293F, co-transfected, purified (FLAG resin, TEV cleavage, gel filtration); not shown: His10, N-terminal, cleaved; Flag3, N-terminal, cleaved
T2 sequence (Q13547 whole entry, chain 1 of 2, one chain of several, the tested form may be a part): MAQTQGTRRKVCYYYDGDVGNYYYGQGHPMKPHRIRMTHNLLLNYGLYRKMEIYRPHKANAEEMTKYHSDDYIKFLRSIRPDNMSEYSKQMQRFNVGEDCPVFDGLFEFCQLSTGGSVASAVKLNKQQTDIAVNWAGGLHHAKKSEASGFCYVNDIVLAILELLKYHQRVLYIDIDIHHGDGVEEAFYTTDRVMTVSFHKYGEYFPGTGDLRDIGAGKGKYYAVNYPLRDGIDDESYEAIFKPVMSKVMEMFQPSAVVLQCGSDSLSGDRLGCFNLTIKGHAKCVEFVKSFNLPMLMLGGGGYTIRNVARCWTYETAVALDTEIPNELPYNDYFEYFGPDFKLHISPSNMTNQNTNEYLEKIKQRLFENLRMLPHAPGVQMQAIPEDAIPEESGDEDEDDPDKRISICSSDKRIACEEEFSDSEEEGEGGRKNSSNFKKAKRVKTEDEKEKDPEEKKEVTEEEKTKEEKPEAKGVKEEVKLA

Binder	stoichiometry N [1]	Kd [2] [µM]
B1	~1	–
B2	–	20 to 100
